Laboratory results as given in PMC5340378, “The DRF motif of CXCR6 as chemokine receptor adaptation to adhesion” (PLoS ONE, 2017).

Key:
[1] = target: human CXCR6[DRF] (CXC-chemokine receptor 6, wild type with the DRF motif) (human, UniProt O00574 1-342); assay: cell-based or functional assay
[2] = target: T1, human CXCR6[DRY] (DRF motif mutated to DRY) (human, UniProt O00574 1-342, DRF to DRY (F128^3.51)); assay: cell-based or functional assay
T1 sequence (looked up): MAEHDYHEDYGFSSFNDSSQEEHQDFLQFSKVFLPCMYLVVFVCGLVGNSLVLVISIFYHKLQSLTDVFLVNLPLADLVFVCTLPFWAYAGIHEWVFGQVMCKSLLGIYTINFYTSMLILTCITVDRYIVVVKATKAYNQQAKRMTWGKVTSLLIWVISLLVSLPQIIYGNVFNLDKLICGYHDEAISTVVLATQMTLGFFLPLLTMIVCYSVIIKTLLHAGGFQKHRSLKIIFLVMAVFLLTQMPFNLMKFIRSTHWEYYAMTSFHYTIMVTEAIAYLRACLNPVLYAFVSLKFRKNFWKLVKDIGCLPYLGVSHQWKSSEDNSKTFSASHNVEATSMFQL

adhesion of THP-1 cells expressing the receptor to immobilized CXCL16-Fc for 30 min, normalized to cells adhering to anti-human-Fc [1]: ~4 fold | adhesion of THP-1 cells to immobilized CXCL16-Fc for 5, 15 and 30 min, CXCR6[DRF] cells compared to CXCR6[DRY] cells [1]: 2 fold | adhesion of THP-1 cells expressing the receptor to immobilized CXCL16-Fc for 30 min, normalized to cells adhering to anti-human-Fc [2]: ~4 fold
B1: human CXCL16-Fc fusion protein (Fc fusion, UniProt Q9H2A7 30-205, looked up)
chain: NEGSVTGSCYCGKRISSDSPPSVQFMNRLRKHLRAYHRCLYYTRFQLLSWSVCGGNKDPWVQELMSCLDLKECGHAYSGIVAHQKHLLPTSPPISQASEGASSDIHTPAQMLLSTLQSTQRPTLPVGSLSSDKELTRPNETTIHTAGHSLAAGPEAGENQKQPEKNAGPTARTSAT
